Source: US20210061914A1 (published 2021)

Target: HLA-A*01:01_… (HLA-PEPTIDE target G10), soluble (human, enzymatically biotinylated (BirA))
Experiment: scFv PPE ELISA

Row | Binder | fold selective binding, target pHLA vs minipool of negative control pHLAs [fold]
1 | scFv R3G10-P5A08 (scFv, V domains shown, scFv) VH: QVQLVQSGAEVKKPGSSVKVSCKASGGTFNNFAISWVRQAPGQGLEWMGGIIPIFDATNYAQKFQGRVTFTADESTSTAYMELSSLRSEDTAVYYCARGEYSSGFFFVGWFDLWGRGTQVTVSS VL: not shown | ≥ 3
2 | scFv R3G10-P1A07 (scFv, V domains shown, scFv) VH: EVQLLESGGGLVKPGGSLRLSCAASGFTFSSYWMSWVRQAPGKGLEWVSGISARSGRTYYADSVKGRFTISRDDSKNTLYLQMNSLKTEDTAVYYCARDQDTIFGVVITWFDPWGQGTLVTVSS VL: DIQMTQSPSSLSASVGDRVTITCRASQGISNYLAWYQQKPGKAPKLLIYAASSLQGGVPSRFSGSGSGTDFTLTISSLQPEDFATYYCQQYFTTPYTFGQGTKLEIK | ≥ 3
3 | scFv R3G10-P4A02 (scFv, V domains shown, scFv) VH: QVQLVQSGAEVKKPGASVKVSCKASGYTLSYYYMHWVRQAPGQGLEWMGMIGPSDGSTSYAQRFQGRVTMTRDTSTGTVYMELSSLRSEDTAVYYCARDTGDHFDYWGQGTLVTVSS VL: not shown | ≥ 3
4 | scFv R3G10-P4D04 (scFv, V domains shown, scFv) VH: QVQLVQSGAEVKKPGASVKVSCKASGYTFTGYYVHWVRQAPGQGLEWMGIIAPSDGSTNYAQKFQGRVTMTRDTSTSTVYMELSSLRSEDTAVYYCARDPGGYMDVWGKGTTVTVSS VL: DIQMTQSPSSLSASVGDRVTITCRASQSISSYLAWYQQKPGKAPKLLIYDASKLETGVPSRFSGSGSGTDFTLTISSLQPEDFATYYCQQSYGVPTFGQGTKLEIK | ≥ 3
5 | scFv R3G10-P1B07 (scFv, V domains shown, scFv) VH: QVQLVQSGAEVKKPGASVKVSCKASGYTFTSYYMHWVRQAPGQGLEWMGIIHPGGGTTSYAQKFQGRVTMTRDTSTSTVYMELSSLRSEDTAVYYCARDKVYGDGFDPWGQGTLVTVSS VL: DIQMTQSPSSLSASVGDRVTITCRASQSISRWLAWYQQKPGKAPKLLIFDASRLQSGVPSRFSGSGSGTDFTLTISSLQPEDFATYYCQQAEAFPYTFGQGTKVEIK | ≥ 3
6 | scFv R3G10-P4E07 (scFv, V domains shown, scFv) VH: QVQLVQSGAEVKKPGSSVKVSCKASGYTFTGYYMHWVRQAPGQGLEWMGRISPSDGSTTYAPKFQGRVTITADESTSTAYMELSSLRSEDTAVYYCARDMGDAFDIWGQGTTVTVSS VL: not shown | ≥ 3
7 | scFv R3G10-P1E12 (scFv, V domains shown, scFv) VH: QVQLVQSGAEVKKPGASVKVSCKASGYIFTGYYMHWVRQAPGQGLEWMGMIGPSDGSTSYAQKFQGRVTMTRDTSTSTVYMELSSLRSEDTAVYYCAREDDSMDVWGKGTTVTVSS VL: not shown | ≥ 3
8 | scFv R3G10-P4D10 (scFv, V domains shown, scFv) VH: QVQLVQSGAEVKKPGASVKVSCKASGYTFTGYYLHWVRQAPGQGLEWMGMIGPSDGSTSYAQKFQGRVTMTRDTSTSTVYMELSSLRSEDTAVYYCARDGDAFDIWGQGTMVTVSS VL: DIQMTQSPSSLSASVGDRVTITCRASQGISSWLAWYQQKPGKAPKLLIYDASNLETGVPSRFSGSGSGTDFTLTISSLQPEDFATYYCQQSYSTPLTFGGGTKVEIK | ≥ 3
9 | scFv R3G10-P2C04 (scFv, V domains shown, scFv) VH: QVQLVQSGAEVKKPGASVKVSCKASGGTFSNSIINWVRQAPGQGLEWMGWMNPNSGNTNYAQKFQGRVTMTRDTSTSTVYMELSSLRSEDTAVYYCAREQWPSYWYFDLWGRGTLVTVSS VL: not shown | ≥ 3

More lines, now with the values ahead:

Row | fold selective binding, target pHLA vs minipool of negative control pHLAs [fold] | Binder
10 | ≥ 3 | scFv R3G10-P3E04 (scFv, V domains shown, scFv) VH: QVQLVQSGAEVKKPGASVKVSCKASGNTFIGYYVHWVRQAPGQGLEWVGIINPNGGSISYAQKFQGRVTMTRDTSTSTVYMELSSLRSEDTAVYYCARGSGDPNYYYYYGLDVWGQGTTVTVSS VL: DIQMTQSPSSLSASVGDRVTITCQASQDISNYLNWYQQKPGKAPKLLIYAASNLQSGVPSRFSGSGSGTDFTLTISSLQPEDFATYYCQQANSLPYTFGQGTKVEIK
11 | ≥ 3 | scFv R3G10-P1H08 (scFv, V domains shown, scFv) VH: QVQLVQSGAEVKKPGASVKVSCKASGVTFSTSAISWVRQAPGQGLEWMGWISPYNGNTDYAQMLQGRVTMTRDTSTSTVYMELSSLRSEDTAVYYCARDAHQYYDFWSGYYSGTYYYGMDVWGQGTTVTVSS VL: DIQMTQSPSSLSASVGDRVTITCRASQGISNYLAWYQQKPGKAPKLLIYSASNLQSGVPSRFSGSGSGTDFTLTISSLQPEDFATYYCQQAYSFPWTFGQGTKVEIK
12 | ≥ 3 | scFv R3G10-P1F06 (scFv, V domains shown, scFv) VH: QVQLVQSGAEVKKPGASVKVSCKASGYTFIGYYMHWVRQAPGQGLEWMGMIGPSDGSTSYAQKFQGRVTMTRDTSTSTVYMELSSLRSEDTAVYYCARDSSGLDPWGQGTLVTVSS VL: DIQMTQSPSSLSASVGDRVTITCRASQSISNYLNWYQQKPGKAPKLLIYKASSLESGVPSRFSGSGSGTDFTLTISSLQPEDFATYYCQQSYIIPYTFGQGTKLEIK
13 | ≥ 3 | scFv R3G10-P1H01 (scFv, V domains shown, scFv) VH: QVQLVQSGAEVKKPGASVKVSCKASGYTFTGYYMHWVRQAPGQGLEWMGMIGPSDGSTSYAQKFQGRVTMTRDTSTSTVYMELSSLRSEDTAVYYCARGVGNLDYWGQGTLVTVSS VL: DIQMTQSPSSLSASVGDRVTITCRASQSISNYLNWYQQKPGKAPKLLIYAASSLQSGVPSRFSGSGSGTDFTLTISSLQPEDFATYYCHQTYSTPLTFGQGTKVEIK
14 | ≥ 3 | scFv R3G10-P4G06 (scFv, V domains shown, scFv; printed VH and VL equal those of R3G10-P4A02) VH: QVQLVQSGAEVKKPGASVKVSCKASGYTLSYYYMHWVRQAPGQGLEWMGMIGPSDGSTSYAQRFQGRVTMTRDTSTGTVYMELSSLRSEDTAVYYCARDTGDHFDYWGQGTLVTVSS VL: not shown
15 | ≥ 3 | scFv R3G10-P2G11 (scFv, V domains shown, scFv) VH: QVQLVQSGAEVKKPGASVKVSCKASGGTFSTHDINWVRQAPGQGLEWMGVINPSGGSAIYAQKFQGRVTMTRDTSTSTVYMELSSLRSEDTAVYYCARDRGYSYGYFDYWGQGTLVTVSS VL: DIQMTQSPSSLSASVGDRVTITCRASQDISRYLAWYQQKPGKAPKLLIYDASNLETGVPSRFSGSGSGTDFTLTISSLQPEDFATYYCQQANSFPRTFGQGTKVEIK
16 | ≥ 3 | scFv R3G10-P4C05 (scFv, V domains shown, scFv) VH: QVQLVQSGAEVKKPGASVKVSCKASGYTFTGYYMHWVRQAPGQGLEWMGIIGPSDGSTTYAQKFQGRVTMTRDTSTSTVYMELSSLRSEDTAVYYCARAENGMDVWGQGTTVTVSS VL: DIQMTQSPSSLSASVGDRVTITCRASQRISSYLNWYQQKPGKAPKLLIYSASTLQSGVPSRFSGSGSGTDFTLTISSLQPEDFATYYCQQSYSTPFTFGPGTKVDIK
17 | ≥ 3 | scFv R3G10-P4E12 (scFv, V domains shown, scFv) VH: QVQLVQSGAEVKKPGASVKVSCKASGYTFTGYYMHWVRQAPGQGLEWMGMIGPSDGSTSYAQRFQGRVTMTRDTSTSTVYMELSSLRSEDTAVYYCAREEDGMDVWGQGTTVTVSS VL: DIQMTQSPSSLSASVGDRVTITCRASQGISTYLAWYQQKPGKAPKLLIYDASSLQSGVPSRFSGSGSGTDFTLTISSLQPEDFATYYCQQYYSYPWTFGQGTRLEIK
